Experimental data: US20210009714A1 (Regeneron, published 2021)
Values belong to the binder of their own block, whether it stands above or below them.

Legend:
[1] = biological target: IgG4 Fc/Fc monospecific antibody; test: flow cytometry sandwich: antibody displayed on cells by CSCP ScFv-FcγR, hFc block, FITC-labeled Ab6 as detection molecule
[2] = biological target: IgG4 Fc/Fc* bispecific antibody; test: as above
[3] = biological target: IgG1 Fc/Fc monospecific antibody; test: as above
[4] = biological target: IgG1 Fc/Fc* bispecific antibody; test: as above
[5] = biological target: IgG1 Fc/Fc monospecific antibody; test: flow cytometry sandwich: antibody displayed on cells by CSCP FcγR, labeled Ab6 as detection molecule
[6] = biological target: IgG1 Fc*/Fc* monospecific antibody; test: as above
[7] = biological target: IgG1 Fc/Fc* bispecific antibody; test: as above
human Fc* homodimer = biological target: T1, human Fc* homodimer (human); test: SPR (Biacore 2000); mAb captured on anti-mouse-Fc surface, Fc dimer injected; 1:1 fit
T1 construct: also called Fc*/Fc*; human ΔAdpFc polypeptide
Description: Measurements to determine binding affinities and kinetic constants were made on a Biacore 2000 instrument. […] Kinetic association (kₐ) and dissociation (kd) rate constants were determined by processing and fitting the data to a 1:1 binding model using Scrubber 2.0 curve fitting software.

[8] = biological target: IgG4 Fc/Fc monospecific antibody; test: flow cytometry sandwich: antibody displayed on cells by CSCP FcγR, labeled Ab2 as detection molecule
[9] = biological target: IgG4 Fc/Fc* bispecific antibody; test: as above
[10] = biological target: IgG4 Fc*/Fc* monospecific antibody; test: as above
[11] = biological target: IgG1 Fc/Fc monospecific antibody; test: as above
[12] = biological target: IgG1 Fc/Fc* bispecific antibody; test: as above
Tie2 = biological target: T2, Tie2 (UniProt Q02763 23-748, limits assumed); test: BIAcore
T2 construct: also called Tie2 receptor
T2 sequence (Q02763 23-748 limits assumed): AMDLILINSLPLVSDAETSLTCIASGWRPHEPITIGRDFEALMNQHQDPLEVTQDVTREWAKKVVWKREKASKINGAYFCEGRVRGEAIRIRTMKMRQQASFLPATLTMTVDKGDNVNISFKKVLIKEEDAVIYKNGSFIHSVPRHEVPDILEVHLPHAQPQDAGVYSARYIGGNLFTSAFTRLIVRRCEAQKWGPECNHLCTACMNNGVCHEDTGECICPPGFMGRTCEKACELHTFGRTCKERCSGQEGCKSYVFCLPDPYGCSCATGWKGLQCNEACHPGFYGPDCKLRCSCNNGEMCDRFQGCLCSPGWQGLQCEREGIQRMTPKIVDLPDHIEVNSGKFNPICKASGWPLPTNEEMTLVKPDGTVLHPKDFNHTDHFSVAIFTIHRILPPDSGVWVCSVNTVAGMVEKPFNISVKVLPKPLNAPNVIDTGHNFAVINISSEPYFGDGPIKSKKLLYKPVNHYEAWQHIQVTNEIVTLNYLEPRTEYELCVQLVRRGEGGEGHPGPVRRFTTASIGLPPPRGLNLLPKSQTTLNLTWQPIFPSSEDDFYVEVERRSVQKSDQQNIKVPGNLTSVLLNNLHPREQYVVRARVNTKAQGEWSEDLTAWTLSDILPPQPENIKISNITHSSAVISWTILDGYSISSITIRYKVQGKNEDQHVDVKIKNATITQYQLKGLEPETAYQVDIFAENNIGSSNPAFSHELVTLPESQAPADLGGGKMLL

MFI [1]: 15
MFI [2]: 500
MFI [3]: 15
MFI [4]: 500
MFI [5]: 200
MFI [6]: 200
MFI [7]: 200
t1/2 (human Fc* homodimer): 19 min
B1: Ab6 (antibody, mouse IgG2a, kappa, V domains shown)
VH: EVQLVESGGAIVKPGGSHRVSCEASGFTFSNAWMSWVRQAPGRGLEWVGRILSKTDGGTTDYAAPVKDRFTISRDDSKNMLFLQMDSLKIEDTAVYFCTTADFWSAYSSDYWGQGTLVTVSS
VL: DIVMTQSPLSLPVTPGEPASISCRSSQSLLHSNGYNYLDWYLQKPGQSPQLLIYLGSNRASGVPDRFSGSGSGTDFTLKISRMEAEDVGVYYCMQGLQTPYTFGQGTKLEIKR
notes: also called Fc*-specific Ab6; Ab6 anti-Fc* antibody

MFI [8]: 200
MFI [9]: 200
MFI [10]: 200
MFI [11]: 350
MFI [12]: 500
B2: Ab2 (antibody, V domains shown)
VH: QLQQSGAELAKPGASVKMSCKASGYTFTNYWIHWEKQRPEQGLEWIGYINPNTGHTEYNQKFKDKATLTADRSSSTAYMQLSSLTSEDSAVYFCARTYSGSSHFDYWGQGTTL
VL: DIVMTQTPVSLPVSLGDQASISCRSSQSLVHNNGDTFLHWYLQKPGQSPKLLIYKVSNRFSGVPDRFSGSGSGTDFTLKISRVEAEDLGVYFCSQTTLIPRTFGGGTKLEI
notes: Monoclonal from Velocimmune mice, captured on an anti-mouse-Fc surface in the SPR study; also called Fc-specific Ab2; Ab2 anti-Fc antibody

Kd (Tie2): 174 nM
B3: FD1-hFc (Fc fusion, UniProt Q15389 277-498, looked up)
chain: REEEKPFRDCADVYQAGFNKSGIYTIYINNMPEPKKVFCNMDVNGGGWTVIQHREDGSLDFQRGWKEYKMGFGNPSGEYWLGNEFIFAITSQRQYMLRIELMDWEGNRAYSQYDRFHIGNEKQNYRLYLKGHTGTAGKQSSLILHGADFSTKDADNDNCMCKCALMLTGGWWFDACGPSNLNGMFYTAGQNHGKLNGIKWHYFKGPSYSLRSTTMMIRPLDF
notes: also called FD1-Fc; not shown: hFc
